This passage reports fold Kd, GNE LKO over GNE WT hepatocytes results from article PMC10583174.

This test has as its target glucagon receptor (GCGR) (mouse (endogenous in primary hepatocytes)) (UniProt Q61606). As to the kind of experiment: radioligand binding.
Sequence of UniProt Q61606 (Q61606 27-485): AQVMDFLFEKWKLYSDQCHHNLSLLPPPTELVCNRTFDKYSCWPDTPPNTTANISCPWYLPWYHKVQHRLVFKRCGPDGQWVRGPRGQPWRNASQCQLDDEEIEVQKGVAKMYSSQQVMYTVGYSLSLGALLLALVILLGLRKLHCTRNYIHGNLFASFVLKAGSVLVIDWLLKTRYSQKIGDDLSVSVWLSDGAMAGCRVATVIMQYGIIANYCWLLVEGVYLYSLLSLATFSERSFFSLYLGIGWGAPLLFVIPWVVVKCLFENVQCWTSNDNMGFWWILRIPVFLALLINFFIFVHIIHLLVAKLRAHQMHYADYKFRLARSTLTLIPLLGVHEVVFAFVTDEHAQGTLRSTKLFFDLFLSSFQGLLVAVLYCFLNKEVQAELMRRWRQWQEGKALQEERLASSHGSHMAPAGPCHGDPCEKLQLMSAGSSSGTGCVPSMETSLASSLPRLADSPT

Regarding glucagon (human) (peptide), the fold Kd, GNE LKO over GNE WT hepatocytes amounted to 10 fold.
